Reference: paper PMC5866929

Assays:
wild-type LacI = wild-type LacI (UniProt P03023 1-360); assay: EMSA
His6-LacI-59 [1] = target: T1, His6-LacI-59 (UniProt P03023 59-360, del1-58); assay: EMSA
His6-LacI-59 [2] = target: T1, His6-LacI-59; assay: filter binding
His6-LacI-51 = His6-LacI-51 (UniProt P03023 51-360, del1-50); assay: filter binding
His6-LacI-51, sequence (P03023 51-360, stated change not applied): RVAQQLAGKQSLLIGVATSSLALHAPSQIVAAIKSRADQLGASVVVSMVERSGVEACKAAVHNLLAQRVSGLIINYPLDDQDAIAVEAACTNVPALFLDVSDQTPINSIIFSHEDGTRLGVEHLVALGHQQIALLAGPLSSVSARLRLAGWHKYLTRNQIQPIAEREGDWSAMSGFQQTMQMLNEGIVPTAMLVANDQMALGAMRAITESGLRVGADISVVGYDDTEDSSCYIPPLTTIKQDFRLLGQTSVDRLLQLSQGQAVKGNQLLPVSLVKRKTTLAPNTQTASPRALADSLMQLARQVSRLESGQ

T1 sequence (P03023 59-360, stated change not applied): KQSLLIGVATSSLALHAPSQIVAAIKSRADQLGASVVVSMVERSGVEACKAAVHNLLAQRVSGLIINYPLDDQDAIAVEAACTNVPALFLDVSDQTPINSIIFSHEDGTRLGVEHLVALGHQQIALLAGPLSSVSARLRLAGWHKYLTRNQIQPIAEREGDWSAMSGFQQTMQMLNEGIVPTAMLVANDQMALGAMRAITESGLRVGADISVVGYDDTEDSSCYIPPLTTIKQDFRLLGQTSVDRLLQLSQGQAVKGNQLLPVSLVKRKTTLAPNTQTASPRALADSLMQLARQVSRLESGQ
wild-type LacI, sequence (P03023 whole entry): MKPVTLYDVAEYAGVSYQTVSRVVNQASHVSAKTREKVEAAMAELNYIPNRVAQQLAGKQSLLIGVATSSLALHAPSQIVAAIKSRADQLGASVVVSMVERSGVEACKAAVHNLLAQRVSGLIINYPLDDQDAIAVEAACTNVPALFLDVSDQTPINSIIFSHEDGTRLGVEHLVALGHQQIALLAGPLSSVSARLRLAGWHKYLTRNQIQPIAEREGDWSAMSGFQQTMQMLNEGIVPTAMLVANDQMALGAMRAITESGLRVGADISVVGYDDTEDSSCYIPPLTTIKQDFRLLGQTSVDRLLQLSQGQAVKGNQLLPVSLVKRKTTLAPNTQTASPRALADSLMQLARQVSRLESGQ

B1: O1 operator 40 bp (dsDNA)
DNA 1: TGTTGTGTGGAATTGTGAGCGGATAACAATTTCACACAGG
DNA 2: CCTGTGTGAAATTGTTATCCGCTCACAATTCCACACAACA
binding result (wild-type LacI): binds | binding result (His6-LacI-59 [1]): no binding

B2: Oscram 40 bp (dsDNA)
DNA 1: GTCATAAGTATCGTGAACTGCTGAGAGTGCTAGCGTTAGT
DNA 2: ACTAACGCTAGCACTCTCAGCAGTTCACGATACTTATGAC
binding result (His6-LacI-59 [2]): no binding | apparent K (half saturation) (His6-LacI-51): ~5 µM
